Measurements published in US20240036044A1 (GEMINA LABORATORIES, published 2024).

How the values were obtained:
[1] = target: Monoclonal antibody against the SARS-CoV-2 Spike protein (A02038, Genscript)
[2] = target: Monoclonal antibody against the SARS-CoV-2 Nucleocapsid protein (A02039, Genscript)
[3] = target: T1, recombinant SARS-CoV-2 Nucleocapsid protein antigen (Z03488, Genscript) (SARS-CoV-2, UniProt P0DTC9 1-419); experiment: dot blot dipstick, gold nanoparticles with EMT-003 alone
T1 construct: also called SARS-CoV-2 Nucleocapsid antigen; NC

[4] = target: T2, recombinant SARS-CoV-2 Spike protein antigen (Z03501, Genscript) (SARS-CoV-2, UniProt P0DTC2 16-685); experiment: dot blot dipstick assay, gold nanoparticle conjugate without antibody
T2 construct: also called SARS-CoV-2 Spike antigen; S antigen

B1: gold-binding fusion protein EMT003 (protein G' - linker - gold-binding peptide EMT015) (other)
chain: MTYKLILNGKTLKGETTTEAVDAATAEKVFKQYANDNGVDGEWTYDDATKTFTVTEKPEVIDASELTPAVTTYKLVINGKTLKGETTTEAVDAATAEKVFKQYANDNGVDGEWTYDDATKTFTVTEKPEVIDASELTPAVTTYKLVINGKTLKGETTTKAVDAETAEKAFKQYANDNGVDGVWTYDDATKTFTVTEGGGGSGGGGSGGGGSASGGGMHGKTQATSGTIQSMHGKTQATSGTIQSMHGKTQATSGTIQSMHGKTQATSGTIQSMHGKTQATSGTIQSMHGKTQATSGTIQSMHGKTQATSGTIQS
notes: also called EMT-03; Gold fusion protein
**Q.** For B1, which Kd [1] is on record?
**A.** Its Kd is 0.192 nM.

**Q.** And the koff [1]?
**A.** Its koff is 0.000103 s⁻¹.

**Q.** What about the kon [1] of the same binder?
**A.** Its kon is 537000 M⁻¹ s⁻¹.

**Q.** And the Kd [2]?
**A.** The Kd was 0.258 nM.

**Q.** What about the koff [2] of the same binder?
**A.** Its koff is 0.000149 s⁻¹.

**Q.** What about the kon [2] of the same binder?
**A.** The kon was 577000 M⁻¹ s⁻¹.

**Q.** Does B1 bind [3]?
**A.** Result: no binding

**Q.** Does B1 bind [4]?
**A.** Result: no binding (tested: 0.5 µg antigen spotted)
